Experiment [1] has as its target T1, placental growth factor (PlGF)-1 (human, UniProt P49763-2 19-149).
T1 construct: mature; Purchased in mature form
T1 sequence (looked up): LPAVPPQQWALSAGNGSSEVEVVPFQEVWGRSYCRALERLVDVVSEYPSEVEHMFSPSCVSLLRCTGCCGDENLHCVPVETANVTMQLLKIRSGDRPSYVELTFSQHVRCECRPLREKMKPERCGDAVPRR
Description: ELISA, HBD peptide coated. The procedure: (§1) ELISA tests were performed as described above. […] After blocking with 2% BSA solution containing PBS-T, 1 μg/mL of the recombinant human proteins VEGF-A121, VEGF-A165, PlGF-1, PlGF-2, PDGF-BB, FGF-2, CXCL-12α and CXCL-12γ were added. 1 μg/mL of BSA served as non-binding protein control. Bound GF or chemokine was detected with biotinylated antibodies for human VEGF-A, PlGF, PDGF-BB, FGF-2, or CXCL-12 (R & D Systems). The antibodies were detected by streptavidin-HRP (R & D Systems). Color development and the absorbance measurement were done as described above.
Background: An ELISA detects its analyte on a solid surface through an enzyme-linked reagent.

The target in experiment [2] is T2, vascular endothelial growth factor (VEGF)-A121 (human, UniProt P15692-9 27-147).
T2 construct: mature; Purchased in mature form, not glycosylated
T2 sequence (looked up): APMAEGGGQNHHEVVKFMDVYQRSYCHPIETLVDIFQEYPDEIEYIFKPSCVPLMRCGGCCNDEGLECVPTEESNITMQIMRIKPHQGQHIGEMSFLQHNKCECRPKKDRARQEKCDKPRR
Description: ELISA, HBD peptide coated. The procedure: as §1

In experiment [3] the target is T2, vascular endothelial growth factor …. Description: ELISA; peptides and vWF forms coated at 50 nM, VEGF-A in solution, detected with anti-VEGF-A antibody [panel D]. The procedure: (A) Diagram of exon sequence of VEGF-A showing inclusion (+) or exclusion (−) of heparin binding domain exons for the different VEGF-A isoforms. […] Bound VEGF-A was detected using a specific antibody for VEGF-A (n=4, mean±SD). Statistical comparisons were done using ANOVA with Tukey's test compared with BSA control. **p<0.01.
(§2) ELISA was performed as previously reported1. […] After blocking with 2% BSA solution containing PBS-T, 1 μg/mL of recombinant human VEGF-A121 (PeproTech), recombinant human VEGF-A145 (R & D Systems), or recombinant human VEGF-A165 (PeproTech) was added. Bound VEGF-A was detected with 1 μg/mL of mouse anti-human VEGF-A antibody (clone: 26503, R & D systems). After 60 min of incubation, horseradish peroxidase (HRP) conjugated goat anti-mouse antibody (1:2000 dilution, Dako) was added and incubated for another 60 min. Color development and the absorbance measurement were done as described above.

In experiment [4] the target is T3, vascular endothelial growth factor (VEGF)-A165 (human, UniProt P15692-4 27-191).
T3 construct: mature; Purchased in mature form, not glycosylated
The experiment is described as follows: ELISA, peptide coated 50 nM. As for the experimental part: as §2

In experiment [5] the target is T4, recombinant human VEGF-A145 (human, UniProt P15692-6 27-171).
T4 sequence (looked up): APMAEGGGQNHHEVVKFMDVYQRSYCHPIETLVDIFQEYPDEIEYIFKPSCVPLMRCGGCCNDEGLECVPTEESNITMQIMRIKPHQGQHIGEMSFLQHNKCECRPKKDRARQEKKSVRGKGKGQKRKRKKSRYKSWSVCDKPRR
The experiment is described as follows: ELISA, peptide coated 50 nM. As for the experimental part: as §2

Experiment [6] deals with T3, vascular endothelial growth factor …. Description: ELISA; growth factors coated at 100 nM, FabCol variants at 100 nM in solution, HRP-anti-human Fab [panel F].
The target in experiment [7] is T1, placental growth factor (PlGF)-1. The experiment is described as above.
Experiment [8] addresses T5, placental growth factor (PlGF)-2 (human, UniProt P49763-3 19-170).
T5 construct: mature; Purchased in mature form
T5 sequence (looked up): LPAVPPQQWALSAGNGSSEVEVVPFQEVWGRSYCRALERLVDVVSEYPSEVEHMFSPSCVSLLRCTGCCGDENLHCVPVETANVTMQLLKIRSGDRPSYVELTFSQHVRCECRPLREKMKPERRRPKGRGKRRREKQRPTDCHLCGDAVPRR
The description is as above.

The target of experiment [9] is T6, mVEGF-C (mouse, UniProt P97953).
T6 construct: also called mouse wild-type VEGF-C
T6 sequence (growth factor chain, looked up): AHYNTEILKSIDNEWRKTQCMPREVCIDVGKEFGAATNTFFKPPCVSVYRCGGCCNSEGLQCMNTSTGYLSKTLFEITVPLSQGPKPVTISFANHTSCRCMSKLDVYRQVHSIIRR
Described as above.

Experiment [10] addresses T7, platelet-derived growth factor (PDGF)-BB (human, UniProt P01127 82-190).
T7 construct: mature; Purchased in mature form
The experiment is described as above.

For experiment [11], the target named is T8, recombinant human BMP-2 (human, UniProt P12643 283-396).
T8 construct: also called rhBMP-2
T8 sequence (P12643 283-396 limits assumed): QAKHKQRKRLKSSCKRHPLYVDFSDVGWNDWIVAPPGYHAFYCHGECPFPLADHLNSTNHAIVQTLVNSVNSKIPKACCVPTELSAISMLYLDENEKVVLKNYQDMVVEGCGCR
The experiment is described as follows: ELISA, rhBMP-2 coated 50 nM.
Description: ELISA plates (NUNC MaxiSorp) were coated with 50 nM of recombinant human BMP-2 (CHO produced, R&D Systems, Minneapolis MN, USA) overnight at room temperature.

In experiment [12] the target is T9, bovine type I collagen (bovine, UniProt P02453 178-1191; P02465 89-1102).
T9 construct: PureCol, Advanced BioMatrix; coated on the plate; also called collagen I; PureCol
T9 sequence (P02453 178-1191, chain 1 of 2): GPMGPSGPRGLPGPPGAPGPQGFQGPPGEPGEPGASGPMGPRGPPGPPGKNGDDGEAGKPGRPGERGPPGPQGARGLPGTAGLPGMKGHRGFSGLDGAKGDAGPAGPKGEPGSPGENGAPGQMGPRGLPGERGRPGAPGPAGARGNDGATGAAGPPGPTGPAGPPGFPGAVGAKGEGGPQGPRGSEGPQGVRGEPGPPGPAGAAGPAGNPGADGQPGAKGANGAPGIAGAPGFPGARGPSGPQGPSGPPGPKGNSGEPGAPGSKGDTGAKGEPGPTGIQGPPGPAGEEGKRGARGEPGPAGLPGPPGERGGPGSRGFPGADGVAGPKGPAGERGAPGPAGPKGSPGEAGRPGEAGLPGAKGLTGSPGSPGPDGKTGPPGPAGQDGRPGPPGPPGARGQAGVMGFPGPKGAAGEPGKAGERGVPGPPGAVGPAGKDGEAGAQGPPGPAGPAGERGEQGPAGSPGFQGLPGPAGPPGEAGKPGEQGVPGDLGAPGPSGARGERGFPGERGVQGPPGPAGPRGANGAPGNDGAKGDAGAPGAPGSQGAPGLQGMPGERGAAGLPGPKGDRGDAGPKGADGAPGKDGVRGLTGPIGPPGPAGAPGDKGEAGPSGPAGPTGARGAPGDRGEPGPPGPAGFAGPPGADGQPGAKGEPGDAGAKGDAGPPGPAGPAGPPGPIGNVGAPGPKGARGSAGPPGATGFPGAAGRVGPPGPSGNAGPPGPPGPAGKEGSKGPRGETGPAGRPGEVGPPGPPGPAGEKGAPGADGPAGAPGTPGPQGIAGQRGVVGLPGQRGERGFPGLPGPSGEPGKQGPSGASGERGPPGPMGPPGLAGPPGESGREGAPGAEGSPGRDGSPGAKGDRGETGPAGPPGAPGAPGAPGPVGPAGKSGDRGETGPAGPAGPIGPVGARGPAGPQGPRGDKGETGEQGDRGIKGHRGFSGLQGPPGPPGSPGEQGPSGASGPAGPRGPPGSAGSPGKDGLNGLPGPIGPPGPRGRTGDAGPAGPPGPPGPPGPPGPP
T9 sequence (P02465 89-1102, chain 2 of 2): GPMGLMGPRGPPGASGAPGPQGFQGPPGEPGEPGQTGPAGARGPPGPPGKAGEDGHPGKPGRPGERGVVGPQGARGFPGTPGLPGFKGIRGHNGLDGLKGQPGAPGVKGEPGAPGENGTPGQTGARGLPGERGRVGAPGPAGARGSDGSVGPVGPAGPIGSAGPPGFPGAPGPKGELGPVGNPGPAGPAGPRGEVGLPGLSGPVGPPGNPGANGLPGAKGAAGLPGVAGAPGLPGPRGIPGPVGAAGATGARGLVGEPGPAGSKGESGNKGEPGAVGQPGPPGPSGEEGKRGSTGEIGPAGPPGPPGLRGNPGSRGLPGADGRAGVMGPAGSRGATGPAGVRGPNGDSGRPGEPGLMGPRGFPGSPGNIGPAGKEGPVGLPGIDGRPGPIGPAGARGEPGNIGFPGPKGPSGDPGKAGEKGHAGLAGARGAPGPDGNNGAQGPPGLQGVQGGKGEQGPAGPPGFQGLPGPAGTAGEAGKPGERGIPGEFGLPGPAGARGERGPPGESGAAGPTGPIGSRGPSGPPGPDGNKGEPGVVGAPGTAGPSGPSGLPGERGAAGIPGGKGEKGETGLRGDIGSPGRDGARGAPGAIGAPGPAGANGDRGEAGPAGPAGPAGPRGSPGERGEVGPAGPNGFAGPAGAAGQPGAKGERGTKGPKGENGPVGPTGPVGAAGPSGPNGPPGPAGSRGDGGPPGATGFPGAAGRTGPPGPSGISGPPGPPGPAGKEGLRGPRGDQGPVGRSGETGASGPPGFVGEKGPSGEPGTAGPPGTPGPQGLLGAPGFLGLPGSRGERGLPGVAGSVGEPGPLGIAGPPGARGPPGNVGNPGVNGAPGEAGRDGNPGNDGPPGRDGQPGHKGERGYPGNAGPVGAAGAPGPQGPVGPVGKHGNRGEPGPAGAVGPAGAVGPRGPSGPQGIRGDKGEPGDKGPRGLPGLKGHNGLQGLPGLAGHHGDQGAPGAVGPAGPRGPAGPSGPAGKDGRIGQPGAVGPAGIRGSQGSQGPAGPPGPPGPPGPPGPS
Description: ELISA on coated bovine type I collagen (10 µg/mL), FabCol titrated, HRP-anti-human Fab [panel C]. The procedure: (§3) ELISA plates (NUNC MaxiSorp, ThermoFisher Scientific) were coated overnight with 10 μg/mL of bovine type I collagen (PureCol, Advanced BioMatrix, San Diego CA, USA) at room temperature. The plate was further blocked using 2% bovine serum albumine (BSA) for 2 h at room temperature. […] The plate was washed thrice in PBST, and an horseradish peroxidase-conjugated anti-human Fab antibody (Jackson ImmunoResearch,) was used to detect bound FabCol variants. […] Absorbance at 450 nm was read using […], and corrected using the absorbance at 570 nm. Curve fits and dissociation constant KD were computed using Prism (GraphPad Software Inc., USA).

The target in experiment [13] is T9, bovine type I collagen. Description: ELISA on coated bovine type I collagen (10 µg/mL), FabCol titrated 0.01-30 nM, HRP-anti-human Fab; table headed 'Estimated KD (nM)' [panel C]. As for the experimental part: as §3
In experiment [14] the target is T9, bovine type I collagen. Description: ELISA on coated bovine type I collagen (10 µg/mL), FabCol titrated 0.01-30 nM, HRP-anti-human Fab [panel C]. The procedure: as §3
The target in experiment [15] is T9, bovine type I collagen. Description: ELISA on coated bovine type I collagen (10 µg/mL), FabCol titrated, HRP-anti-human Fab; table headed 'Estimated KD (nM)' [panel C]. The procedure: as §3
Experiment [16] concerns the target T3, vascular endothelial growth factor …. The experiment is described as follows: ELISA, peptide coated. The essentials: (§4)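 Wells coated with 10 μg/mL laminin α3/α4/α5 LG-domain peptides, BSA-coated wells as non-binding control, blocked with 2% BSA PBS-T. Recombinant human GFs added at 1 μg/mL; bound GF detected with GF-specific biotinylated antibody plus streptavidin-HRP (n=4, mean±SEM).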

Experiment [17] concerns the target T1, placental growth factor (PlGF)-1. Description: ELISA, peptide coated. The essentials: as §4
Experiment [18] concerns the target T5, placental growth factor (PlGF)-2. The experiment is described as follows: ELISA, peptide coated. Put shortly:
as §4

Experiment [19] addresses T10, fibroblast growth factor (FGF)-2 (human, UniProt P09038 143-288).
T10 construct: mature; Purchased in mature form
Description: ELISA, peptide coated. The essentials: as §4

For experiment [20], the target named is T2, vascular endothelial growth factor …. The experiment is described as follows: ELISA, peptide coated. Put shortly:
as §4

For experiment [21], the target named is T7, platelet-derived growth factor (PDGF)-BB. The experiment is described as follows: ELISA, peptide coated. The essentials:
as §4

T7 sequence (P01127 82-190): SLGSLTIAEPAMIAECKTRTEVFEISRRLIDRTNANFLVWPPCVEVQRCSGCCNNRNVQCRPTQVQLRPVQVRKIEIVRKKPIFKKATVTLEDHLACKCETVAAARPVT
T10 sequence (P09038 143-288): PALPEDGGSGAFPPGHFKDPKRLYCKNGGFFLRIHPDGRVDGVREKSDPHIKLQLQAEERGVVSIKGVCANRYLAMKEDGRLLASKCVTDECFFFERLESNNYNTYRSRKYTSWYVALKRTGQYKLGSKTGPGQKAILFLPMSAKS

B1: vWF A1 HBD peptide (23 residues) (peptide)
peptide: YIGLKDRKRPSELRRIASQVKYA
notes: Chemically synthesized (Genscript); also called vWF HBD; vWF A1 peptide
Turning to B1, the binding result in experiment [1] and in experiment [2] was “no binding (tested: 1 µg/mL)” each time.

B2: Scrambled HBD (peptide)
peptide: LYCEIARGYSLKRKVPDQIRSRKA
notes: also called scrambled vWF A1 HBD peptide
Take B2: the binding result was “no binding (tested: 1 µg/mL VEGF-A121 (single concentration))” in [3], “no binding (tested: 1 µg/mL)” in experiment [4] and “no binding (tested: 1 µg/mL)” in experiment [5].

B3: FabCol (Fab)
light: EIVLTQSPGTLSLSPGERATLSCRASQSVSSSYLAWYQQKPGQAPRLLIYGASSRATGIPDRFSGSGSGTDFTLTISRLEPEDFAVYYCQQAIGFPQTFGQGTKVEIKRTVAAPSVFIFPPSDEQLKSGTASVVCLLNNFYPREAKVQWKVDNALQSGNSQESVTEQDSKDSTYSLSSTLTLSKADYEKHKVYACEVTHQGLSSPVTKSFNRGEC
heavy: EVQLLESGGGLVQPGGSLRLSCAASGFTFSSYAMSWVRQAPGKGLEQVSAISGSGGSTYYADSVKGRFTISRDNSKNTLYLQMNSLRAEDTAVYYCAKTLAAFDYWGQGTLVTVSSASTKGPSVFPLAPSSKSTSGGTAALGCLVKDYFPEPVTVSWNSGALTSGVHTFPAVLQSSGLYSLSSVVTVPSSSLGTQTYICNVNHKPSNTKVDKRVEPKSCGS
notes: Human Fab with human Fab constant regions; also called non-conjugated FabCol; anti-collagen I Fab (clone C11)
By EC50 (read off the curve) is commonly meant the concentration needed to bring the measured effect to its halfway point. A higher EC50 (read off the curve) goes with lower potency in that assay. What is called Kd is the constant that tells how readily two partners part at equilibrium. On to B3, for which the binding result in experiment [6] is given as “no binding (tested: 100 nM (single concentration))”; in experiment [7], “no binding (tested: 100 nM (single concentration))”; in experiment [8], “no binding (tested: 100 nM (single concentration))”; in experiment [9], “no binding (tested: 100 nM (single concentration))”; in [10], “no binding (tested: 100 nM (single concentration))”; in experiment [11], “no binding (tested: 50 nM)”. Further, the “EC50 (read off the curve)” value in experiment [12] is roughly 0.2 nM; in experiment [14] it was roughly 1 nM. The dissociation constant Kd in experiment [13] is 0.9 nM; in experiment [15], 0.3 nM.
Regarding ARKASRRSRQPARH (Chemically synthesized (Genscript)) [laminin α5 3312-3325 peptide (Linker)], the binding result in experiment [16], in [17], in experiment [18], in [19], in [20] and in experiment [21] was “no binding (tested: 1 µg/mL)” throughout.
